# Experimental data from PMC3024946, “Hydroxyproline-containing collagen analogs trigger the release and activation of collagen-sequestered proMMP-2 by competition with prodomain-derived peptide P33-42” (Fibrogenesis & Tissue Repair, 2011).
# What was measured:
# Parameters in all cases: species or system human
# [1] = tested on: ActMMP-9; experiment: Solid-phase binding of [125I]-actMMP-9 to immobilized collagens/peptides (microwells); settings: ActMMP-9, 2 ng/well; coated wells; 4°C, 2 h; residual radioactivity; mean ± SD, at least five experiments in triplicate
# Method: (§1) Human recombinant proMMPs and in vitro activated MMPs were obtained from Invitek and were labeled with the [^125I]-Bolton-Hunter reagent according to the manufacturer's instructions (PerkinElmer, Rodgau, Germany) before the buffer was exchanged for phosphate-buffered saline (PBS) with 0.05% (vol/vol) Tween 20 by gel filtration as described previously. Specific radioactivity for [^125I]-MMPs was 3-9 × 10^4 cpm/ng. Precipitation with 10% (wt/vol) trichloroacetic acid and 200 μg of BSA recovered 96% to 100% of protein-bound radioactivity. Aliquots of labeled MMPs were frozen and stored at -80°C. […]
# (§2) The following collagen analogs and control peptides were synthesized as described previously: (GPO)10, H-Gly-Cys-Hyp-(Gly-Pro-Hyp)10-Gly-Cys-Hyp-Gly-NH2; (GPP)10, H-Gly-Cys-Pro-(Gly-Pro-Pro)10-Gly-Cys-Pro-Gly-NH2; and GAP, H-Gly-Ala-Cys-(Gly-Ala-Pro)5-Gly-Phe-Hyp-Gly-Glu-Arg-(Gly-Ala-Pro)5-NH2. […] Graphs were calculated from the primary data using a custom fitting program written by D.A. Slatter (Department of Biochemistry, University of Cambridge, Cambridge, UK [48]) to model different possible transitions. […]
# (§3) ProMMP-2 and proMMP-9 or actMMP-2 and actMMP-9 were bound to nitrocellulose and polystyrene-immobilized native collagens, CI chains, CB peptides or structural analogs. […] Membranes were washed again and air-dried, and bound MMP was monitored by autoradiography. […]
# [2] = tested on: ActMMP-2; experiment: Solid-phase binding of [125I]-actMMP-2 to immobilized collagens/peptides (microwells); settings: ActMMP-2, 2 ng/well; coated wells; 4°C, 2 h; residual radioactivity; mean ± SD, at least five experiments in triplicate
# Method: as §1, §2, §3
# [3] = tested on: ProMMP-9; experiment: Solid-phase binding of [125I]-proMMP-9 to immobilized collagens/peptides (microwells); settings: ProMMP-9, 2 ng/well; coated wells; 4°C, 2 h; residual radioactivity; mean ± SD, at least five experiments in triplicate
# Method: as §1, §2, §3
# [4] = tested on: ProMMP-2; experiment: Solid-phase binding of [125I]-proMMP-2 to immobilized collagens/peptides (microwells); settings: ProMMP-2, 2 ng/well; coated wells; 4°C, 2 h; residual radioactivity; mean ± SD, at least five experiments in triplicate
# Method: as §1, §2, §3
molecule,measurement,setting,value
CIII: native human collagen type III (protein) QQEAVEGGCSHLGQSYADRDVWKPEPCQICVCDSGSVLCDDIICDDQELDCPNPEIPFGECCAVCPQPPTAPTRPPNGQGPQGPKGDPGPPGIPGRNGDPGIPGQPGSPGSPGPPGICESCPTGPQNYSPQYDSYDVKSGVAVGGLAGYPGPAGPPGPPGPPGTSGHPGSPGSPGYQGPPGEPGQAGPSGPPGPPGAIGPSGPAGKDGESGRPGRPGERGLPGPPGIKGPAGIPGFPGMKGHRGFDGRNGEKGETGAPGLKGENGLPGENGAPGPMGPRGAPGERGRPGLPGAAGARGNDGARGSDGQPGPPGPPGTAGFPGSPGAKGEVGPAGSPGSNGAPGQRGEPGPQGHAGAQGPPGPPGINGSPGGKGEMGPAGIPGAPGLMGARGPPGPAGANGAPGLRGGAGEPGKNGAKGEPGPRGERGEAGIPGVPGAKGEDGKDGSPGEPGANGLPGAAGERGAPGFRGPAGPNGIPGEKGPAGERGAPGPAGPRGAAGEPGRDGVPGGPGMRGMPGSPGGPGSDGKPGPPGSQGESGRPGPPGPSGPRGQPGVMGFPGPKGNDGAPGKNGERGGPGGPGPQGPPGKNGETGPQGPPGPTGPGGDKGDTGPPGPQGLQGLPGTGGPPGENGKPGEPGPKGDAGAPGAPGGKGDAGAPGERGPPGLAGAPGLRGGAGPPGPEGGKGAAGPPGPPGAAGTPGLQGMPGERGGLGSPGPKGDKGEPGGPGADGVPGKDGPRGPTGPIGPPGPAGQPGDKGEGGAPGLPGIAGPRGSPGERGETGPPGPAGFPGAPGQNGEPGGKGERGAPGEKGEGGPPGVAGPPGGSGPAGPPGPQGVKGERGSPGGPGAAGFPGARGLPGPPGSNGNPGPPGPSGSPGKDGPPGPAGNTGAPGSPGVSGPKGDAGQPGEKGSPGAQGPPGAPGPLGIAGITGARGLAGPPGMPGPRGSPGPQGVKGESGKPGANGLSGERGPPGPQGLPGLAGTAGEPGRDGNPGSDGLPGRDGSPGGKGDRGENGSPGAPGAPGHPGPPGPVGPAGKSGDRGESGPAGPAGAPGPAGSRGAPGPQGPRGDKGETGERGAAGIKGHRGFPGNPGAPGSPGPAGQQGAIGSPGPAGPRGPVGPSGPPGKDGTSGHPGPIGPPGPRGNRGERGSEGSPGHPGQPGPPGPPGAPGPCCGGVGAAAIAGIGGEKAGGFAPYYG,Binding of [125I]-MMPs,[1],5.0 ± 0.4 % of maximum control
same,Binding of [125I]-MMPs,[2],14.3 ± 5.8 % of maximum control
same,Binding of [125I]-MMPs,[3],45.0 ± 2.0 % of maximum control
same,Binding of [125I]-MMPs,[4],40.0 ± 5.0 % of maximum control
